Assay results from the supplement of paper PMC10065799, “High-throughput profiling of sequence recognition by tyrosine kinases and SH2 domains using bacterial peptide display” (eLife, 2023).

Target: FGFR3 (UniProt P22607)
Test: phosphorylation enrichment, bacterial display (enrichment ratio); higher = better substrate or ligand; peptides without Tyr show the background
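Note: 11-residue human phosphosite peptides and single-mutation variants displayed on the E. coli surface, counted by deep sequencing, each peptide's frequency after selection divided by its frequency in the unselected input library; frequency after pTyr selection over input frequency; kinase dosed for 20-30% of maximal phosphorylation in three min.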

FGFR3, sequence (P22607 whole entry, looked up): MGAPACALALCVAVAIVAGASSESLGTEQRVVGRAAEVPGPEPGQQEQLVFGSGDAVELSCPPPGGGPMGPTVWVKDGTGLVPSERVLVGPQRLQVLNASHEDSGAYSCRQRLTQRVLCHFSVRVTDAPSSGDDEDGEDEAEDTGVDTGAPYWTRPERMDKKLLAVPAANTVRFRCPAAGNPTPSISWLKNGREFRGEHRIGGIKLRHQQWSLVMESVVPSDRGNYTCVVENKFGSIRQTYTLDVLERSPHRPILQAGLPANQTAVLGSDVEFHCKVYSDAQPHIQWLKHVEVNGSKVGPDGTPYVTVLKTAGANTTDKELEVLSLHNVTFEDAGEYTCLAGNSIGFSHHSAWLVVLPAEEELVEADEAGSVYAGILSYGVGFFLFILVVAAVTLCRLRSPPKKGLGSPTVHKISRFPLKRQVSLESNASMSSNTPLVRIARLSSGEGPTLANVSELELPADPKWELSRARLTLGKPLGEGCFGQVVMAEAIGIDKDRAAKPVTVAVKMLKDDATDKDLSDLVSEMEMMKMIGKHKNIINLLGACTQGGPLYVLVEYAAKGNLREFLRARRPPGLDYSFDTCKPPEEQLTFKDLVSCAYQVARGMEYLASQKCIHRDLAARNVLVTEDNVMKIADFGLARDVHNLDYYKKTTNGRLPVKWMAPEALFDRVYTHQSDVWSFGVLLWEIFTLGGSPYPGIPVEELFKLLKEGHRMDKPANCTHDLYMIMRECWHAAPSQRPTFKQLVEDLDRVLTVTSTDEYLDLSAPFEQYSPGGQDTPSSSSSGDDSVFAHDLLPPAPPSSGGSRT

Sequence	phosphorylation enrichment
GLCSFYETSKM [MAGED2_Y449_R446C_YF]	0.931
DLFRLYVCVKE [ARID1B_Y1091]	0.88
FSSLGYPPPEG [ZSWIM4_Y87_YF]	0.704
WVYNHYRCIIW [BRCA2_Y2624_W2626C]	0.891
REQREYLDQLN [CCDC88B_Y1277]	0.66
MAALSYVSEIG [BPIFB2_Y36_K31M]	0.584
TRDVNYGWIIR [MT-CYB_Y75]	0.654
GFDHSYFFIAT [ESD_Y262_YF]	5.72
PQGVRYIYTID [DCX_Y103]	1.15
HSLRDYKEALM [ADA2_Y337_H335R]	0.881
GDFFRYLAEVA [YWHAG_Y133_YF]	0.664
IFRASYVPFAA [RBM47_Y541_G538R_YF]	0.635
ITRDIYETDFF [INSR_Y1185_M1180I_YF]	0.738
ITLPIYTKGSE [ANK2_Y1455_E1458G]	0.502
FLAVGYHKTHI [IDS_Y225_P228T]	0.649
RVVVPYEPPEV [TP53_Y220_S215R]	0.657
ARSMEYLAEQK [MST1R_Y1198]	0.622

Sequence	phosphorylation enrichment
RRFSSYSQMEN [PKP1_Y120]	1.18
EKKDIYKAGEQ [CFH_Y1008_V1007I]	0.364
DNACQYMLTDR [MYH7_Y164_Y162C]	0.691
SGGLDYGMVGG [TNRC6B_Y1382_M1380L]	0.537
LNYNEYFRDLN [HPRT1_Y198_D194N]	1.38
QRKRAYVEIEF [MAK16_Y282_YF]	0.785
KRLWDYGMSSS [F8_Y1728_E1723K]	0.511
VAFLFYKSIGP [ADGRL4_Y302_V300L_YF]	0.837
TQNGVYSAANY [DDX5_Y535]	0.514
FFLGAYDRFLP [SLC22A5_Y486_V481F_YF]	0.782
RLGNQHVNVMN [SLC3A1_Y461_Y461H]	0.691
INMKKYCKKDF [NTN1_Y490_YF]	0.757
MSRYIYSTDYY [NTRK1_Y676_D674Y]	6.27
KLPFLYDDPFS [GPX2_Y127_P126L_YF]	0.62
KLPFPYDDPFS [GPX2_Y127_YF]	0.755
SQSPHYFRSGR [GPATCH8_Y1038]	0.425

Target: Hck (UniProt P08631)
Test: as above

Hck, sequence (P08631 whole entry, looked up): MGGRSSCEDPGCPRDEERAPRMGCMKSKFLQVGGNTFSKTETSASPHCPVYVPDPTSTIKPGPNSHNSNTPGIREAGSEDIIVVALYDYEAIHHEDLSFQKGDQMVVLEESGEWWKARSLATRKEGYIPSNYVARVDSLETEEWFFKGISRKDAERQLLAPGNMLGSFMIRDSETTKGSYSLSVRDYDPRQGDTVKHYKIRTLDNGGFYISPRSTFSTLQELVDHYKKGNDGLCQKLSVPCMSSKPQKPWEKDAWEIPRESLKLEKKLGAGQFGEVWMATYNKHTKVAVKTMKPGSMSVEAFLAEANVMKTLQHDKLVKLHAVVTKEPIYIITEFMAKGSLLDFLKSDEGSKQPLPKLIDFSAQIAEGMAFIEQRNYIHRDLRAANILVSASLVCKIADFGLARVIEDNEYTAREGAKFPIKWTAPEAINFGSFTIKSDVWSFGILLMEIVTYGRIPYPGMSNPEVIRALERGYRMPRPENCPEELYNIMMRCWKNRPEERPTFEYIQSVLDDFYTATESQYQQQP

Sequence	phosphorylation enrichment
GLCSFYETSKM [MAGED2_Y449_R446C_YF]	0.794
DLFRLYVCVKE [ARID1B_Y1091]	0.475
FSSLGYPPPEG [ZSWIM4_Y87_YF]	0.472
WVYNHYRCIIW [BRCA2_Y2624_W2626C]	0.538
REQREYLDQLN [CCDC88B_Y1277]	0.604
MAALSYVSEIG [BPIFB2_Y36_K31M]	0.4
TRDVNYGWIIR [MT-CYB_Y75]	0.422
GFDHSYFFIAT [ESD_Y262_YF]	0.626
PQGVRYIYTID [DCX_Y103]	1.6
HSLRDYKEALM [ADA2_Y337_H335R]	0.679
GDFFRYLAEVA [YWHAG_Y133_YF]	0.477
IFRASYVPFAA [RBM47_Y541_G538R_YF]	0.506
ITRDIYETDFF [INSR_Y1185_M1180I_YF]	1.12
ITLPIYTKGSE [ANK2_Y1455_E1458G]	0.645
FLAVGYHKTHI [IDS_Y225_P228T]	0.469
RVVVPYEPPEV [TP53_Y220_S215R]	0.454
ARSMEYLAEQK [MST1R_Y1198]	0.622

Sequence	phosphorylation enrichment
RRFSSYSQMEN [PKP1_Y120]	0.896
EKKDIYKAGEQ [CFH_Y1008_V1007I]	0.373
DNACQYMLTDR [MYH7_Y164_Y162C]	0.567
SGGLDYGMVGG [TNRC6B_Y1382_M1380L]	0.76
LNYNEYFRDLN [HPRT1_Y198_D194N]	0.879
QRKRAYVEIEF [MAK16_Y282_YF]	0.398
KRLWDYGMSSS [F8_Y1728_E1723K]	0.337
VAFLFYKSIGP [ADGRL4_Y302_V300L_YF]	0.488
TQNGVYSAANY [DDX5_Y535]	8.68
FFLGAYDRFLP [SLC22A5_Y486_V481F_YF]	3.38
RLGNQHVNVMN [SLC3A1_Y461_Y461H]	0.505
INMKKYCKKDF [NTN1_Y490_YF]	0.437
MSRYIYSTDYY [NTRK1_Y676_D674Y]	5.21
KLPFLYDDPFS [GPX2_Y127_P126L_YF]	1.5
KLPFPYDDPFS [GPX2_Y127_YF]	0.663
SQSPHYFRSGR [GPATCH8_Y1038]	0.389

Tested on: AncSZ
Test: as above

Sequence	phosphorylation enrichment
GLCSFYETSKM [MAGED2_Y449_R446C_YF]	1.4
DLFRLYVCVKE [ARID1B_Y1091]	1.17
FSSLGYPPPEG [ZSWIM4_Y87_YF]	0.752
WVYNHYRCIIW [BRCA2_Y2624_W2626C]	1.28
REQREYLDQLN [CCDC88B_Y1277]	0.917
MAALSYVSEIG [BPIFB2_Y36_K31M]	0.642
TRDVNYGWIIR [MT-CYB_Y75]	0.997
GFDHSYFFIAT [ESD_Y262_YF]	1.52
PQGVRYIYTID [DCX_Y103]	1.73
HSLRDYKEALM [ADA2_Y337_H335R]	0.746
GDFFRYLAEVA [YWHAG_Y133_YF]	1.07
IFRASYVPFAA [RBM47_Y541_G538R_YF]	0.859
ITRDIYETDFF [INSR_Y1185_M1180I_YF]	1.44
ITLPIYTKGSE [ANK2_Y1455_E1458G]	0.63
FLAVGYHKTHI [IDS_Y225_P228T]	0.784
RVVVPYEPPEV [TP53_Y220_S215R]	1.01
ARSMEYLAEQK [MST1R_Y1198]	0.755

Sequence	phosphorylation enrichment
RRFSSYSQMEN [PKP1_Y120]	2.29
EKKDIYKAGEQ [CFH_Y1008_V1007I]	0.493
DNACQYMLTDR [MYH7_Y164_Y162C]	1.02
SGGLDYGMVGG [TNRC6B_Y1382_M1380L]	0.765
LNYNEYFRDLN [HPRT1_Y198_D194N]	1.82
QRKRAYVEIEF [MAK16_Y282_YF]	0.926
KRLWDYGMSSS [F8_Y1728_E1723K]	0.592
VAFLFYKSIGP [ADGRL4_Y302_V300L_YF]	1.38
TQNGVYSAANY [DDX5_Y535]	0.69
FFLGAYDRFLP [SLC22A5_Y486_V481F_YF]	1.5
RLGNQHVNVMN [SLC3A1_Y461_Y461H]	0.793
INMKKYCKKDF [NTN1_Y490_YF]	0.854
MSRYIYSTDYY [NTRK1_Y676_D674Y]	2.16
KLPFLYDDPFS [GPX2_Y127_P126L_YF]	1.07
KLPFPYDDPFS [GPX2_Y127_YF]	1.05
SQSPHYFRSGR [GPATCH8_Y1038]	0.719

Target: Jak2 (UniProt O60674)
Test: as above

Jak2, sequence (O60674 whole entry, looked up): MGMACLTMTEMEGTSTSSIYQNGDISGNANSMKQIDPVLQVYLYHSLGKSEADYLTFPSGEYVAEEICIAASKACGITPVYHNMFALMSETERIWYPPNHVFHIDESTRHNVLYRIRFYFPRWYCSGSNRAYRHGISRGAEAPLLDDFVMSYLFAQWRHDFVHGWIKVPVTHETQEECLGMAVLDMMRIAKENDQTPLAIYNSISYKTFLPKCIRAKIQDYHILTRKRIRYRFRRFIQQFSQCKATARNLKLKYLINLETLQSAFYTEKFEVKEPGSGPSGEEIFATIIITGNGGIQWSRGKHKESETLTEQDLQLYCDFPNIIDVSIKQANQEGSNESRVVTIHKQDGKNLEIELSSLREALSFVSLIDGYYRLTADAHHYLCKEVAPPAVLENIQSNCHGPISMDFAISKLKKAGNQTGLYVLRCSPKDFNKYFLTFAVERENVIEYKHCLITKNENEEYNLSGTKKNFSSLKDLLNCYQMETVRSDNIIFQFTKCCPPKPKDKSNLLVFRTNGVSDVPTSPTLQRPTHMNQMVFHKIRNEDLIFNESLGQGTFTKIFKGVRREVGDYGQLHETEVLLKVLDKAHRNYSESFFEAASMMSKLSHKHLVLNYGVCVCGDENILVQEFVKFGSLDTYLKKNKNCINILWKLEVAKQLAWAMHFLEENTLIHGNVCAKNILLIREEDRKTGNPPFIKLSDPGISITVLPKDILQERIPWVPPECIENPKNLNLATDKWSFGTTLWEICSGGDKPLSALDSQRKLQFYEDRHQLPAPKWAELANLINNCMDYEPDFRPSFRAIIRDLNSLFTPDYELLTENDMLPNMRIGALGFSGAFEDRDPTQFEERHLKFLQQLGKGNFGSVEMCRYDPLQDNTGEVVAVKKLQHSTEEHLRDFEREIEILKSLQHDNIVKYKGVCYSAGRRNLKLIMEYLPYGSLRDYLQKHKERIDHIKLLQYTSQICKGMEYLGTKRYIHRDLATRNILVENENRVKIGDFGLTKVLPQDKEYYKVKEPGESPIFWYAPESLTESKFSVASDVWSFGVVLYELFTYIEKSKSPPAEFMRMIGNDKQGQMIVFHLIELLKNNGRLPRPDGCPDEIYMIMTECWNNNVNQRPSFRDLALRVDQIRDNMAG

Sequence	phosphorylation enrichment
GLCSFYETSKM [MAGED2_Y449_R446C_YF]	1.34
DLFRLYVCVKE [ARID1B_Y1091]	1.35
FSSLGYPPPEG [ZSWIM4_Y87_YF]	0.807
WVYNHYRCIIW [BRCA2_Y2624_W2626C]	1.4
REQREYLDQLN [CCDC88B_Y1277]	0.578
MAALSYVSEIG [BPIFB2_Y36_K31M]	0.804
TRDVNYGWIIR [MT-CYB_Y75]	0.949
GFDHSYFFIAT [ESD_Y262_YF]	5.69
PQGVRYIYTID [DCX_Y103]	2.21
HSLRDYKEALM [ADA2_Y337_H335R]	1.03
GDFFRYLAEVA [YWHAG_Y133_YF]	0.964
IFRASYVPFAA [RBM47_Y541_G538R_YF]	0.784
ITRDIYETDFF [INSR_Y1185_M1180I_YF]	1.16
ITLPIYTKGSE [ANK2_Y1455_E1458G]	0.571
FLAVGYHKTHI [IDS_Y225_P228T]	0.971
RVVVPYEPPEV [TP53_Y220_S215R]	0.892
ARSMEYLAEQK [MST1R_Y1198]	1.08

Sequence	phosphorylation enrichment
RRFSSYSQMEN [PKP1_Y120]	0.657
EKKDIYKAGEQ [CFH_Y1008_V1007I]	0.488
DNACQYMLTDR [MYH7_Y164_Y162C]	0.959
SGGLDYGMVGG [TNRC6B_Y1382_M1380L]	0.636
LNYNEYFRDLN [HPRT1_Y198_D194N]	1.57
QRKRAYVEIEF [MAK16_Y282_YF]	0.723
KRLWDYGMSSS [F8_Y1728_E1723K]	0.666
VAFLFYKSIGP [ADGRL4_Y302_V300L_YF]	1.98
TQNGVYSAANY [DDX5_Y535]	0.5
FFLGAYDRFLP [SLC22A5_Y486_V481F_YF]	1.02
RLGNQHVNVMN [SLC3A1_Y461_Y461H]	1.09
INMKKYCKKDF [NTN1_Y490_YF]	0.689
MSRYIYSTDYY [NTRK1_Y676_D674Y]	2.09
KLPFLYDDPFS [GPX2_Y127_P126L_YF]	1.03
KLPFPYDDPFS [GPX2_Y127_YF]	0.9
SQSPHYFRSGR [GPATCH8_Y1038]	0.687
